What follows are sequences tested against T1, OmpR-N6His (Xenorhabdus nematophila YL001) (UniProt D3VF01) (assay: EMSA). Conditions: EMSA: 5x buffer 250 mM Tris, 250 mM KCl, 0.5 mM DTT, 50 mM MgCl2, 25% glycerol, pH 8.0 (1x: 50 mM Tris, 50 mM KCl, 0.1 mM DTT, 10 mM MgCl2, 5% glycerol); 30 min.
T1 sequence: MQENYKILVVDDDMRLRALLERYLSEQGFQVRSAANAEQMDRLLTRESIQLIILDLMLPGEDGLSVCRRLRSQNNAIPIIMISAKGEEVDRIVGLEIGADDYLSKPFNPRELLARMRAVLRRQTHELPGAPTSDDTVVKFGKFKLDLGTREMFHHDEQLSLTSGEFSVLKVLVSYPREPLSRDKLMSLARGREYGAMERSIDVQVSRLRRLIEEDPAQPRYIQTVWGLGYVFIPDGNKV

**Q.** For “TTTGGATTGCATAAATTTTGTTAAGAAAGGAGAAAAATAAAACCCCATGATAGTCTAAATAGTAAAAAAATGAAGTAAACCTTTGCCCTATTTAATAGAGTAGAGTAATGTCACAATCGGTATTATTTTATTTGATACTGCTGAAGTAAAAACACCAGGTTAGTTAGTAATTAAAATCAAAAAAAAGTGATGAATAAACAATG (double strand) [PlrhA203]”, which binding is on record?
**A.** Its binding is “no binding”.

**Q.** How did the binding turn out when “TAATTCTTCCTCCAAGAGCAAAATACGATAACAAACTCCGCTATTCCATGACTTTACGTTCTTTTACATGCTCTGACGCTAGTTTGCAGCCGCAGGGTTATAGTTATCCACACTGAATCGAATAGAGCTATTCGAGAAAGCGGAGAAATTTAATGC (double strand) [PcpxR156]” was run?
**A.** The binding was “no binding”.

**Q.** How did the binding turn out when “CCGGCCTTTGGTAATAAATCAGGATAATTGAGTGATGTAAACGGGAAAACAAGGGGAAAAAACCAAAGCATAAGCAATGATTGCCAATACGGTTAATGGCCTTAAAATACATGTGGTTAGTTTCTATTGAATATGGGGTTTCGGTAAAAGTCATGGATATTGCGGGCATGGAGCATCTTGGGAGCTGAAAC (double strand) [PompR191]” was run?
**A.** Its binding is “no binding”.

**Q.** “TACGGCTACGTAAATAATAAAGCATTGGTTATGTCTGTTTGTTTTTTTGTACAAGGACGAATCTCAATTTAATTTCGAAAAATTGAGGTCATTGATCTTATTAATGGGTAGGTTGTTTACGATGTCAAAATGTTGCATTTGAAAACAGACAATCTTCCATTATTTAATGAGATCACTGCGATAAGTTTAGTGGAGTGAAATA (double strand) [PleuO202]” was tested. Which binding did it give?
**A.** Its binding is “no binding”.
